Experimental data taken from PMC9477746, “Mechanism of AAA+ ATPase-mediated RuvAB–Holliday junction branch migration” (Nature, 2022).

T1: RuvA (Salmonella typhimurium, UniProt P66746 1-203)
T1 sequence: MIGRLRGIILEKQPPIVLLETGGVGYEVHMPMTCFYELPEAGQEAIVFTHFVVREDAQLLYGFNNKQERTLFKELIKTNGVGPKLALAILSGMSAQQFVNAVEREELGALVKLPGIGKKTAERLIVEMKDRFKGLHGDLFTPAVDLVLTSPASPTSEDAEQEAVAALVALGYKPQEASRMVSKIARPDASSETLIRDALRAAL

B1: N-terminally truncated RuvB (16-333) from S. thermophilus (domain or fragment, UniProt Q03IE9 16-333, looked up)
chain: VERTLRPQYFKEYIGQDKVKDQLKIFIEAAKLRDEALDHTLLFGPPGLGKTTMAFVIANEMGVNLKQTSGPAIEKAGDLVAILNDLEPGDILFIDEIHRMPMAVEEVLYSAMEDYYIDIMIGAGETSRSVHLDLPPFTLVGATTRAGMLSNPLRARFGINGHMEYYELPDLTEIVERTSEIFEMTITPEAALELARRSRGTPRIANRLLKRVRDYAQIMGDGVIDDKIADQALTMLDVDHEGLDYVDQKILRTMIEMYGGGPVGLGTLSVNIAEERETVEDMYEPYLIQKGFIMRTRTGRVATAKAYEHMGYDYTRDN
notes: RuvB, Holliday junction AAA+ ATPase, Streptococcus thermophilus, residues 16-333; domains RuvB^L 21-181, RuvB^S 182-254, RuvB^H 255-330; C-terminal TEV site, linker and HA tag; TEV cleavage done during dialysis, so residues of the TEV site may remain at the C-terminus; Tetrameric by gel filtration in solution, hexamer on DNA in the cryo-EM complex; also called RuvB (S. thermophilus); RuvB motor; …

What was measured:
[1] = target: B1; assay: cryo-EM structure; same reconstitution of the RuvAB-Holliday junction hetero-complex, on ice 30 min before vitrification (dataset t1); conditions: both partners purified
[2] = target: the molecule itself; assay: cryo-EM structure; in vitro reconstituted RuvAB-Holliday junction hetero-complex: SEC-purified RuvA-HJ mixed with RuvB, 10 mM MgCl2, equimolar ATPγS and ADP (1 mM), 37 °C 10 min, then on ice about 5 h before vitrification (dataset t2)
RuvA = target: T1, RuvA; assay: EMSA; 5 mM EDTA; complex II (two tetramers) saturated at >500 nM RuvA; complex I (one tetramer) at <200 nM; EMSA: 30 mM Tris-HCl pH 8, 5 mM EDTA, 1 mM DTT, 100 ug/ml BSA, 30 min at 37 C; 6% PAGE at 4 C in 0.5x TAE; conditions: protein: recombinant; tags: C-terminal His4; chain copies: 4; label: 5'-32P on one strand; four-way junction 1:2 2:3 3:4 4:1
[3] = target: the molecule itself; assay: SEC; Superdex 200 10/300GL, 100 mM NaCl, 1 mM EDTA, 0.5 mM DTT, 5% glycerol, 100 mM Tris-HCl pH 8; each protein alone; mass estimated from retention of a gel filtration standard

Binder	stoichiometry N [1]	stoichiometry N [2]	binding result (RuvA)	stoichiometry N [3]
RuvA from S. typhimurium (natural protein, UniProt P66746 1-203, looked up, RuvA, Holliday junction branch migration protein, Salmonella typhimurium; three domains (I, II, III); Tetramer in solution by gel filtration; two tetramers (eight chains) on the Holliday junction in the cryo-EM complex; Cloned into pET-52b(+) by NcoI and SacI; also called RuvA (S. typhimurium); recombinant S. typhimurium RuvA; source: E. coli BL21(DE3), purified (HisTrap, Superdex 200 SEC)) MIGRLRGIILEKQPPIVLLETGGVGYEVHMPMTCFYELPEAGQEAIVFTHFVVREDAQLLYGFNNKQERTLFKELIKTNGVGPKLALAILSGMSAQQFVNAVEREELGALVKLPGIGKKTAERLIVEMKDRFKGLHGDLFTPAVDLVLTSPASPTSEDAEQEAVAALVALGYKPQEASRMVSKIARPDASSETLIRDALRAAL	1 RuvA^D3 per RuvB hexamer	4		
HJ-Y2Ap (immobile Holliday junction) (structured_DNA) DNA 1: CTCATCGAGAATCTGCCGAGAGACCGAGCAGAATTCTATGTGTTTACCAAGCGCTG DNA 2: CAGCGCTTGGTAAACACATAGAATTCTGCTCGGTCTGAGCCGTCTAAGAGACCTAG DNA 3: CTAGGTCTCTTAGACGGCTCACTGGCTGTGGGATCCGAGCTGTCTAGAGACATCGA DNA 4: TCGATGTCTCTAGACAGCTCGGATCCCACAGCCAGTCTCGGCAGATTCTCGATGAG			binds	
B1		6		4
